Measurements: patent US20220411483A1 (Chugai, published 2022)

T1: FcγRIIa R type extracellular domain with C-terminal His tag (human, UniProt P12318 34-217)
T1 construct: extracellular domain; also called FcgRIIaR; not shown: His tag at the C terminus
T1 sequence (looked up): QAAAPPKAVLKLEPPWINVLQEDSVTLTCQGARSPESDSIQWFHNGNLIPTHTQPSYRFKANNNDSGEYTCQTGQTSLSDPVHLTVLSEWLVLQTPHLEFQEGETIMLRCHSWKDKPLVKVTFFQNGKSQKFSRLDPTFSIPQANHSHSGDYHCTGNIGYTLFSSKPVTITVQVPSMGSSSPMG

T2: FcγRIIb extracellular domain with C-terminal His tag (human, UniProt P31994 43-217)
T2 construct: extracellular domain; also called FcgRIIb; not shown: His tag at the C terminus
T2 sequence (looked up): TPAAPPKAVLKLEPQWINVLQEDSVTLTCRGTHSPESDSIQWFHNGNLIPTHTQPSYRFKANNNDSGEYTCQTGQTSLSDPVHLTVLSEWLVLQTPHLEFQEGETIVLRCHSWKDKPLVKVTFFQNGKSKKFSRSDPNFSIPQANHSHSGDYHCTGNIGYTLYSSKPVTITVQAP


Legend:
Experiment in all cases: SPR, antibody captured, FcgR analyte
[1] = biological target: T3, FcγRIa extracellular domain with C-terminal His tag (human, UniProt P12314 16-292)
T3 construct: also called FcgRIa; CD64; not shown: His tag at the C terminus

[2] = biological target: T1, FcγRIIa R type extracellular domain …
[3] = biological target: T2, FcγRIIb extracellular domain with …

T3 sequence (P12314 16-292): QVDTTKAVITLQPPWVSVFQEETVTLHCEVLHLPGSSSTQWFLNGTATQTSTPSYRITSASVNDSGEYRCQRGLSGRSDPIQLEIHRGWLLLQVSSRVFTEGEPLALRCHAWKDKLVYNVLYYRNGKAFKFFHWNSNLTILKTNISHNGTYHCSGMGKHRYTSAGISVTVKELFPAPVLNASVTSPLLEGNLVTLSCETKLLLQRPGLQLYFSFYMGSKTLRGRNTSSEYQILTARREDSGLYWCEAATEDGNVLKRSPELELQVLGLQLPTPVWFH

| Kd [1] [nM] | Kd [2] [nM] | Kd [3] [nM] | Binder |
| --- | --- | --- | --- |
| 7 | – | – | IL6R-BP249/IL6R-L (antibody, human IgG1, kappa, name in EU numbering, human IgG1) heavy: QVQLQESGPGLVKPSETLSLTCAVSGHSISHDHAWSWVRQPPGEGLEWIGFISYSGITNYNPSLQGRVTISRDNSKNTLYLQMNSLRAEDTAVYYCARSLARTTAMDYWGEGTLVTVSSASTKGPSVFPLAPSSKSTSGGTAALGCLVKDYFPEPVTVSWNSGALTSGVHTFPAVLQSSGLYSLSSVVTVPSSSLGTQTYICNVNHKPSNTKVDKKVEPKSCDKTHTCPPCPAPDYLGDDSVFLFPPKPKDTLMISRTPEVTCVVVDVSDEDGEVKFNWYVDGVEVHNAKTKPREEQDNSTYRVVSVLTVLHQDWLNGKEYKCKVSNKALPRPIEKTISKAKGQPREPQVYTLPPSRDELTKNQVSLTCLVKGFYPSDIAVEWESNGQPENNYKTTPPVLDSDGSFFLYSKLTVDKSRWQQGNVFSCSVMHEALHNHYTQESLSLSP light: not shown |
| 7.4 | 350 | – | IL6R-BP264/IL6R-L (antibody, human IgG1, kappa, name in EU numbering, human IgG1) heavy: QVQLQESGPGLVKPSETLSLTCAVSGHSISHDHAWSWVRQPPGEGLEWIGFISYSGITNYNPSLQGRVTISRDNSKNTLYLQMNSLRAEDTAVYYCARSLARTTAMDYWGEGTLVTVSSASTKGPSVFPLAPSSKSTSGGTAALGCLVKDYFPEPVTVSWNSGALTSGVHTFPAVLQSSGLYSLSSVVTVPSSSLGTQTYICNVNHKPSNTKVDKKVEPKSCDKTHTCPPCPAPDLLGDDSVFLFPPKPKDTLMISRTPEVTCVVVDVSEEDGEVKFNWYVDGVEVHNAKTKPREEQDNSTYRVVSVLTVLHQDWLNGKEYKCKVSNKALPRPIEKTISKAKGQPREPQVYTLPPSRDELTKNQVSLTCLVKGFYPSDIAVEWESNGQPENNYKTTPPVLDSDGSFFLYSKLTVDKSRWQQGNVFSCSVMHEALHNHYTQESLSLSP light: not shown |
| 4.5 | – | 92 | IL6R-BP268/IL6R-L (antibody, human IgG1, kappa, name in EU numbering, human IgG1) heavy: QVQLQESGPGLVKPSETLSLTCAVSGHSISHDHAWSWVRQPPGEGLEWIGFISYSGITNYNPSLQGRVTISRDNSKNTLYLQMNSLRAEDTAVYYCARSLARTTAMDYWGEGTLVTVSSASTKGPSVFPLAPSSKSTSGGTAALGCLVKDYFPEPVTVSWNSGALTSGVHTFPAVLQSSGLYSLSSVVTVPSSSLGTQTYICNVNHKPSNTKVDKKVEPKSCDKTHTCPPCPAPDLLGDDSVFLFPPKPKDTLMISRTPEVTCVVVDVSEEDGEVKFNWYVDGVEVHNAKTKPREEQDNSTYRVVSVLTVLHQDWLNGKEYKCKVSNKALPAPIEKTISKAKGQPREPQVYTLPPSRDELTKNQVSLTCLVKGFYPSDIAVEWESNGQPENNYKTTPPVLDSDGSFFLYSKLTVDKSRWQQGNVFSCSVMHEALHNHYTQESLSLSP light: not shown |
| 1 | – | – | IL6R-BP426/IL6R-L (antibody, human IgG1, kappa, name in EU numbering, human IgG1) heavy: QVQLQESGPGLVKPSETLSLTCAVSGHSISHDHAWSWVRQPPGEGLEWIGFISYSGITNYNPSLQGRVTISRDNSKNTLYLQMNSLRAEDTAVYYCARSLARTTAMDYWGEGTLVTVSSASTKGPSVFPLAPSSKSTSGGTAALGCLVKDYFPEPVTVSWNSGALTSGVHTFPAVLQSSGLYSLSSVVTVPSSSLGTQTYICNVNHKPSNTKVDKKVEPKSCDKTHTCPPCPAPDLLGDDSVFLFPPKPKDTLMISRTPEVTCVVVDVAEDDGEVKFNWYVDGVEVHNAKTKPREEQYNSTYRVVSVLTVLHQDWLNGKEYKCKVSNKALPRPIEKTISKAKGQPREPQVYTLPPSRDELTKNQVSLTCLVKGFYPSDIAVEWESNGQPENNYKTTPPVLDSDGSFFLYSKLTVDKSRWQQGNVFSCSVMHEALHNHYTQESLSLSP light: not shown |
| 1 | – | – | IL6R-BP435/IL6R-L (antibody, human IgG1, kappa, name in EU numbering, human IgG1) heavy: QVQLQESGPGLVKPSETLSLTCAVSGHSISHDHAWSWVRQPPGEGLEWIGFISYSGITNYNPSLQGRVTISRDNSKNTLYLQMNSLRAEDTAVYYCARSLARTTAMDYWGEGTLVTVSSASTKGPSVFPLAPSSKSTSGGTAALGCLVKDYFPEPVTVSWNSGALTSGVHTFPAVLQSSGLYSLSSVVTVPSSSLGTQTYICNVNHKPSNTKVDKKVEPKSCDKTHTCPPCPAPDLLGDDSVFLFPPKPKDTLMISRTPEVTCVVVDVSDEDGEVKFNWYVDGVEVHNAKTKPREEQDNSTYRVVSVLTVLHQDWLNGKEYKCKVSNAALPRPTEKTISKAKGQPREPQVYTLPPSRDELTKNQVSLTCLVKGFYPSDIAVEWESNGQPENNYKTTPPVLDSDGSFFLYSKLTVDKSRWQQGNVFSCSVMHEALHNHYTQESLSLSP light: not shown |
| 2 | 80 | 2.6 | IL6R-BP445/IL6R-L (antibody, human IgG1, kappa, name in EU numbering, human IgG1) heavy: QVQLQESGPGLVKPSETLSLTCAVSGHSISHDHAWSWVRQPPGEGLEWIGFISYSGITNYNPSLQGRVTISRDNSKNTLYLQMNSLRAEDTAVYYCARSLARTTAMDYWGEGTLVTVSSASTKGPSVFPLAPSSKSTSGGTAALGCLVKDYFPEPVTVSWNSGALTSGVHTFPAVLQSSGLYSLSSVVTVPSSSLGTQTYICNVNHKPSNTKVDKKVEPKSCDKTHTCPPCPAPDLLGDDSVFLFPPKPKDTLMISRTPEVTCVVIDVAEEDGEVKFNWYVDGVEVHNAKTKPREEQYNSTYRVVSVLTVLHQDWLNGKEYKCKVSNKALPRPIEKTISKAKGQPREPQVYTLPPSRDELTKNQVSLTCLVKGFYPSDIAVEWESNGQPENNYKTTPPVLDSDGSFFLYSKLTVDKSRWQQGNVFSCSVMHEALHNHYTQESLSLSP light: not shown |
| – | 6300 | 200 | IL6R-BP480/IL6R-L (antibody, human IgG1, kappa, name in EU numbering, human IgG1) heavy: QVQLQESGPGLVKPSETLSLTCAVSGHSISHDHAWSWVRQPPGEGLEWIGFISYSGITNYNPSLQGRVTISRDNSKNTLYLQMNSLRAEDTAVYYCARSLARTTAMDYWGEGTLVTVSSASTKGPSVFPLAPSSKSTSGGTAALGCLVKDYFPEPVTVSWNSGALTSGVHTFPAVLQSSGLYSLSSVVTVPSSSLGTQTYICNVNHKPSNTKVDKKVEPKSCDKTHTCPPCPAPDLLGDDSVFLFPPKPKDTLMISRTPEVTCVVVDLSEDDGEVKFNWYVDGVEVHNAKTKPREEQYNSTYRVVSVLTVLHQDWLNGKEYKCKVSNKALPAPIEKTISKAKGQPREPQVYTLPPSRDELTKNQVSLTCLVKGFYPSDIAVEWESNGQPENNYKTTPPVLDSDGSFFLYSKLTVDKSRWQQGNVFSCSVMHEALHNHYTQESLSLSP light: not shown |
| 0.82 | – | 21 | IL6R-BP493/IL6R-L (antibody, human IgG1, kappa, name in EU numbering, human IgG1) heavy: QVQLQESGPGLVKPSETLSLTCAVSGHSISHDHAWSWVRQPPGEGLEWIGFISYSGITNYNPSLQGRVTISRDNSKNTLYLQMNSLRAEDTAVYYCARSLARTTAMDYWGEGTLVTVSSASTKGPSVFPLAPSSKSTSGGTAALGCLVKDYFPEPVTVSWNSGALTSGVHTFPAVLQSSGLYSLSSVVTVPSSSLGTQTYICNVNHKPSNTKVDKKVEPKSCDKTHTCPPCPAPELLGGDSVFLFPPKPKDTLMISRTPEVTCVVIDVAEEDGEVKFNWYVDGVEVHNAKTKPREEQDNSTYRVVSVLTVLHQDWLNGKEYKCKVSNKALPAPIEKTISKAKGQPREPQVYTLPPSRDELTKNQVSLTCLVKGFYPSDIAVEWESNGQPENNYKTTPPVLDSDGSFFLYSKLTVDKSRWQQGNVFSCSVMHEALHNHYTQESLSLSP light: not shown |
| 8.3 | – | 9.7 | IL6R-BP495/IL6R-L (antibody, human IgG1, kappa, name in EU numbering, human IgG1) heavy: QVQLQESGPGLVKPSETLSLTCAVSGHSISHDHAWSWVRQPPGEGLEWIGFISYSGITNYNPSLQGRVTISRDNSKNTLYLQMNSLRAEDTAVYYCARSLARTTAMDYWGEGTLVTVSSASTKGPSVFPLAPSSKSTSGGTAALGCLVKDYFPEPVTVSWNSGALTSGVHTFPAVLQSSGLYSLSSVVTVPSSSLGTQTYICNVNHKPSNTKVDKKVEPKSCDKTHTCPPCPAPELLGDDSVFLFPPKPKDTLMISRTPEVTCVVVDVGEEDGEVKFNWYVDGVEVHNAKTKPREEQDNSTYRVVSVLTVLHQDWLNGKEYKCKVSNKALPRPIEKTISKAKGQPREPQVYTLPPSRDELTKNQVSLTCLVKGFYPSDIAVEWESNGQPENNYKTTPPVLDSDGSFFLYSKLTVDKSRWQQGNVFSCSVMHEALHNHYTQESLSLSP light: not shown |
| 2.1 | – | 25 | IL6R-BP501/IL6R-L (antibody, human IgG1, kappa, name in EU numbering, human IgG1) heavy: QVQLQESGPGLVKPSETLSLTCAVSGHSISHDHAWSWVRQPPGEGLEWIGFISYSGITNYNPSLQGRVTISRDNSKNTLYLQMNSLRAEDTAVYYCARSLARTTAMDYWGEGTLVTVSSASTKGPSVFPLAPSSKSTSGGTAALGCLVKDYFPEPVTVSWNSGALTSGVHTFPAVLQSSGLYSLSSVVTVPSSSLGTQTYICNVNHKPSNTKVDKKVEPKSCDKTHTCPPCPAPELLGDDSVFLFPPKPKDTLMISRTPEVTCVVIDVAEEDGEVKFNWYVDGVEVHNAKTKPREEQYNSTYRVVSVLTVLHQDWLNGKEYKCKVSNKALPAPIEKTISKAKGQPREPQVYTLPPSRDELTKNQVSLTCLVKGFYPSDIAVEWESNGQPENNYKTTPPVLDSDGSFFLYSKLTVDKSRWQQGNVFSCSVMHEALHNHYTQESLSLSP light: not shown |
| – | 850 | 20 | IL6R-BP557/IL6R-L (antibody, human IgG1, kappa, name in EU numbering, human IgG1) heavy: QVQLQESGPGLVKPSETLSLTCAVSGHSISHDHAWSWVRQPPGEGLEWIGFISYSGITNYNPSLQGRVTISRDNSKNTLYLQMNSLRAEDTAVYYCARSLARTTAMDYWGEGTLVTVSSASTKGPSVFPLAPSSKSTSGGTAALGCLVKDYFPEPVTVSWNSGALTSGVHTFPAVLQSSGLYSLSSVVTVPSSSLGTQTYICNVNHKPSNTKVDKKVEPKSCDKTHTCPPCPAPELLGDDSVFLFPPKPKDTLMISRTPEVTCVVVDVGDEDGEVKFNWYVDGVEVHNAKTKPREEQDNSTYRVVSVLTVLHQDWLNGKEYKCKVSNKALPRPIEKTISKAKGQPREPQVYTLPPSRDELTKNQVSLTCLVKGFYPSDIAVEWESNGQPENNYKTTPPVLDSDGSFFLYSKLTVDKSRWQQGNVFSCSVMHEALHNHYTQESLSLSP light: not shown |
